Laboratory results taken from patent publication US6514938B1, “Copolymer 1 related polypeptides for use as molecular weight markers and for therapeutic use” (Yeda Research and Development Co. Ltd. at the Weizmann …, priority 1998, dated 2003).
Values belong to the molecule of their own block, whether it stands above or below them.

Experiments:
[1] = test system: anti-Cop-1 (3-3-9) monoclonal antibody; assay: RIA: binding of anti-Cop 1 monoclonal antibody to coated antigen; settings: for % Cop 1 binding: relative to Cop 1 reference standard 03494; for Binding of mAb cpm: wells coated with 2 μg/ml antigen, 125I-goat anti-mouse IgG bound
[2] = test system: anti-Cop-1 (3-1-45) monoclonal antibody; assay: as above; settings: for % Cop 1 binding: relative to Cop 1 reference standard 03494; for Binding of mAb cpm: wells coated with 2 μg/ml antigen, 125I-goat anti-mouse IgG bound
[3] = test system: anti-Cop-1 (5-7-2) monoclonal antibody; assay: as above; settings: for % Cop 1 binding: relative to Cop 1 reference standard 03494; for Binding of mAb cpm: wells coated with 2 μg/ml antigen, 125I-goat anti-mouse IgG bound
[4] = test system: BALB/c-Ts-Cop-1 T cell line; assay: Proliferation of Cop 1 specific T cell line (3H-thymidine uptake); settings: for 3H-Thymidine incorporation (% Cop 1): 10 μg antigen, relative to 03494; for 3H-Thymidine incorporation cpm: cultured with 10 μg antigen
[5] = test system: L-22-1 T cell clone; assay: as above; settings: for 3H-Thymidine incorporation (% Cop 1): 10 μg antigen, relative to 03494; for 3H-Thymidine incorporation cpm: cultured with 10 μg antigen
[6] = test system: SC-103 Cop 1 specific T cell clone; assay: as above; settings: for 3H-Thymidine incorporation (% Cop 1): 10 μg antigen, relative to 03494; for 3H-Thymidine incorporation cpm: cultured with 10 μg antigen
[7] = test system: SC-14 Cop 1 specific T cell clone; assay: as above; settings: for 3H-Thymidine incorporation (% Cop 1): 10 μg antigen, relative to 03494; for 3H-Thymidine incorporation cpm: cultured with 10 μg antigen
[8] = test system: experimental allergic encephalomyelitis (EAE) in (SJL/JxBALB/c)FI mice; assay: Blocking of experimental allergic encephalomyelitis by injection with complete adjuvant; format: in vivo, mouse; settings: for Incidence of EAE: antigen included in the encephalitogenic inoculum, animals with EAE/animals in group; for % Blocking: blocking of EAE versus control without antigen; for Mean Score: disease score 0 (healthy) to 5 (dead); for Mean Onset: animals not protected, onset = day of score of at least 1
From the text: Blocking of Experimental Allergic Encephalomyelitis—To test the physiological activity of TV-markers, protection from experimental allergic encephalomyelitis (EAE) was investigated in mice. Injection of Copolymer 1 in complete Freund's adjuvant together with the encephalitogen can block EAE essentially as described in Aharoni et al., 17 Eur. J. Immunol. 23 (1993). Other researchers have observed that the therapeutic effect of Copolymer 1 in multiple sclerosis patients is also associated with the induction of TH2 cells. Lahat et al., 244 J. Neurol. 129 (1997). In this example, EAE is blocked by different polypeptides of the present invention.
Pertussis toxin (0.25 ml, 250 ng, Sigma) is injected intravenously, immediately after and 48 hr later. […] 2156 (1979).
EAE blocking by injection with complete adjuvant—Each antigen being tested was included in the encephalitogenic inoculum. […] Also shown is the mean onset of EAE in animals which were not protected. Disease intensity is scored daily in mice with a score of zero (0=healthy) to five (5=dead).

% Cop 1 binding [1]: (0) %
Binding of mAb cpm [1]: 1176 cpm
% Cop 1 binding [2]: (0) %
Binding of mAb cpm [2]: 343 cpm
% Cop 1 binding [3]: (1) %
Binding of mAb cpm [3]: 657 cpm
Molecule: AKKYAKKEKAAKKAYKKEAKAKAAEAAAKEAAYEA [TV-35]
3H-Thymidine incorporation (% Cop 1) [4]: (28) %
3H-Thymidine incorporation cpm [4]: 9465 cpm
3H-Thymidine incorporation (% Cop 1) [5]: (0) %
3H-Thymidine incorporation cpm [5]: 225 cpm
3H-Thymidine incorporation (% Cop 1) [6]: (0) %
3H-Thymidine incorporation cpm [6]: 438 cpm
3H-Thymidine incorporation (% Cop 1) [7]: (0) %
3H-Thymidine incorporation cpm [7]: 884 cpm

Molecule: AKKYAKKAKAEKAKKAYKAAEAKKAAKYEKAAAEKAAAKEAAYEA [TV-45]
Incidence of EAE [8]: 0/10
% Blocking [8]: 100%
Mean Score [8]: 0

Molecule: AKKYAKKEKAYAKKAEKAAKKAEAKAYKAAEAKKKAEAKYKAEAAKAAAKEAAYEA [TV-56]
% Cop 1 binding [1]: (2) %
Binding of mAb cpm [1]: 1614 cpm
% Cop 1 binding [2]: (6) %
Binding of mAb cpm [2]: 1581 cpm
% Cop 1 binding [3]: (91) %
Binding of mAb cpm [3]: 9584 cpm
3H-Thymidine incorporation (% Cop 1) [4]: (59) %
3H-Thymidine incorporation cpm [4]: 19545 cpm
3H-Thymidine incorporation (% Cop 1) [5]: (0) %
3H-Thymidine incorporation cpm [5]: 232 cpm
3H-Thymidine incorporation (% Cop 1) [6]: (0) %
3H-Thymidine incorporation cpm [6]: 237 cpm
3H-Thymidine incorporation (% Cop 1) [7]: (117) %
3H-Thymidine incorporation cpm [7]: 3495 cpm

% Cop 1 binding [1]: (6) %
Binding of mAb cpm [1]: 2265 cpm
% Cop 1 binding [2]: (9) %
Binding of mAb cpm [2]: 2152 cpm
% Cop 1 binding [3]: (37) %
Binding of mAb cpm [3]: 4259 cpm
B1: AKKYAKKEKAYAKKAEKAAKKAEAKAYKAAEAKKKAKAEAKKYAKAAKAEKKEYAAAEAKYKAEAAKAAAKEAAYEA (peptide)
chain: AKKYAKKEKAYAKKAEKAAKKAEAKAYKAAEAKKKAKAEAKKYAKAAKAEKKEYAAAEAKYKAEAAKAAAKEAAYEA
Mean Onset [8]: 14.0 days
Incidence of EAE [8]: 1/9
% Blocking [8]: 89%
Mean Score [8]: 0.2
3H-Thymidine incorporation (% Cop 1) [4]: (52) %
3H-Thymidine incorporation cpm [4]: 17367 cpm
3H-Thymidine incorporation (% Cop 1) [5]: (1) %
3H-Thymidine incorporation cpm [5]: 300 cpm
3H-Thymidine incorporation (% Cop 1) [6]: (0) %
3H-Thymidine incorporation cpm [6]: 327 cpm
3H-Thymidine incorporation (% Cop 1) [7]: (83) %
3H-Thymidine incorporation cpm [7]: 2701 cpm

% Cop 1 binding [1]: (2) %
Binding of mAb cpm [1]: 1625 cpm
% Cop 1 binding [2]: (6) %
Binding of mAb cpm [2]: 1606 cpm
% Cop 1 binding [3]: (76) %
Binding of mAb cpm [3]: 8140 cpm
B2: AKKYAKKEKAYAKKAEKAAKKAEAKAYKAAEAKKKAKAEAKKYAKAAKAEKKEYAAAEAKYKAEAAKKAYKAEAAKAAAKEAAYEA (peptide)
chain: AKKYAKKEKAYAKKAEKAAKKAEAKAYKAAEAKKKAKAEAKKYAKAAKAEKKEYAAAEAKYKAEAAKKAYKAEAAKAAAKEAAYEA
Mean Onset [8]: 12.0 days
Incidence of EAE [8]: 3/10
% Blocking [8]: 70%
Mean Score [8]: 0.7
3H-Thymidine incorporation (% Cop 1) [4]: (44) %
3H-Thymidine incorporation cpm [4]: 14694 cpm
3H-Thymidine incorporation (% Cop 1) [5]: (1) %
3H-Thymidine incorporation cpm [5]: 418 cpm
3H-Thymidine incorporation (% Cop 1) [6]: (0) %
3H-Thymidine incorporation cpm [6]: 298 cpm
3H-Thymidine incorporation (% Cop 1) [7]: (65) %
3H-Thymidine incorporation cpm [7]: 2284 cpm

B3: AKKYAKKAEKAYAKKAKAAKEKKAYAKKEAKAYKAAEAKKKAKAEAKKYAKEAAKAKKEAYKAEAKKYAKAAKAEKKEYAAAEAKKAEAAKAYKAEAAKAAAKEAAYEA (peptide)
chain: AKKYAKKAEKAYAKKAKAAKEKKAYAKKEAKAYKAAEAKKKAKAEAKKYAKEAAKAKKEAYKAEAKKYAKAAKAEKKEYAAAEAKKAEAAKAYKAEAAKAAAKEAAYEA
notes: reversed-phase fraction 2 used for calibration
Incidence of EAE [8]: 0/10
% Blocking [8]: 100%
Mean Score [8]: 0

B4: AKKYAKKEKAYAKAKKAEAKAAKKAKAEAKKYAKAAKAEKKEYAAAEAKYKAEAAKAAAKEAAYEA (peptide)
chain: AKKYAKKEKAYAKAKKAEAKAAKKAKAEAKKYAKAAKAEKKEYAAAEAKYKAEAAKAAAKEAAYEA
Mean Onset [8]: 11.7 days
Incidence of EAE [8]: 6/10
% Blocking [8]: 40%
Mean Score [8]: 2.8
